Measured values published in US20020009436A1, “Methods and compositions for inhibiting adhesion by microorganisms” (priority 1999, published 2002).

Experiments:
[1] = tested on: Candida albicans; assay: Adhesion of Candida albicans to buccal cells; format: cell-based; settings: 37° C. 60 min, ave ±SE, 5 runs
[2] = tested on: P. gingivalis; assay: Hemagglutination assay of periodontopathogens, P. gingivalis; format: cell-based, Porphyromonas gingivalis; parameters: key: + Hemagglutination; − No hemagglutination; settings: sheep blood, polyphenol oxidase 90 U/ml or asparaginase 20 U/ml, 90 min
Description: The hemagglutinations were carried out in 96 microwell (Nunc) plates in which 50 μl of 1% suspension of sheep blood and 50 μl of serially diluted cells suspension in phosphate buffered (10 mM Na2HPO4, 10 mM KH2PO4, 150 mM NaCl, 3 mM KCl) were added. The cells were adjusted at 1.4 OD at 540 nm. All the strains were treated in NaCl-free buffer with polyphenol oxidase (90 U/ml) or asparaginase (20 U/ml) for 90 min at 37° C. before hemagglutination.

[3] = tested on: S. pyogenes; assay: Adhesion of S. pyogenes to human buccal cells (light microscopy counts); format: cell-based, Streptococcus pyogenes
Description: Streptococcus pyogenes strains were grown and pure cultures isolated on blood agar plates at 37° C. Each were subsequently inoculated into brain heart infusion (BHI) nutrient broth at 37° C. for continued growth.
The cells of each S. pyogenes strains were then washed with phosphate buffer (pH 7) three times. The optical density (OD) of each stain was measured using a spectrophotometer, and adjusted to 0.8. One ml of each strain was treated with polyphenol oxidase or asparaginase. The controls and enzyme-supplemental cells were incubated for ninety minutes at 37° C. Each were washed three times for ten minutes at 15,000 rpm, and recollected in 0.9 ml phosphate buffer.
Human buccal cells were collected and cleaned in phosphate buffer. The buccal cells and S. pyogenes were combined in a ratio of 3:1 respectively, for each strain and allowed to incubate 30 min. Buccal cells were removed by centrifugation (500×g) and washed three times to reduce streptococcal background. The buccal cell-streptococcal complexes were then smeared on slides. The resulting slides were stained using the Gram method, and viewed under the 100× oil immersion lens. The number of S. pyogenes for each strain was counted for at least 50 buccal cells.

[4] = tested on: P. gingivalis W50 (adhesin) / A. naeslundii T14V (receptor); assay: Coaggregation P. gingivalis W50 / A. naeslundii T14V; settings: P. gingivalis W50 (adhesin) enzyme treated; polyphenol oxidase 90 U/ml, asparaginase 20 U/ml
Description: S. sanguis 10556, A. naeslundii strains 12104 and T14V and E. coli were grown static cultures in Todd-Hewitt broth (BBL Microbiology Systems, Cockeysville, Md.). P. gingivalis W50, A. actinomycetemcomitans and C. ochracea were grown in brain heart infusion broth (BBL). F. nucleatum 22586 and P. intermedia 25611 were grown in modified Schaedler broth (BBL). All oral species except S. sanguis 10556 were incubated at 37° C. as static cultures under an anaerobic atmosphere containing H2, CO2 and N2(10:10:80) with GasPaks (BBL). S. sanguis was incubated at 37° C. as static cultures in 5% CO2.
Bacteria were harvested in the mid to late exponential growth phase by centrifugation (10,000×g for 10 min at 4° C.). The cells were washed twice in coaggregation buffer (30 mM 3-[N-morpholino]propanesulfonic acid (MOPS), pH 7.0) and adjusted to an optical density of 0.6-0.8 at 540 nm (1-cm path). […]
Coaggregation was assessed by turbidity changes. Following mixing of the cells for 10 s on a Vortex mixer, absorbance readings were made every 30 min. The percentage of coaggregation was calculated from the following formula: Percent coaggregation=[OD540(A)+OD540(B)−OD540(A+B)]/(OD540(A)+OD540(B)), where A is the control containing cells of one strain, B is the control containing cells of the other strain, and A+B is the reaction mixture containing both cells. […]

[5] = tested on: P. aeruginosa culture supernatants; assay: Proteolytic activity of P. aeruginosa culture supernatants on azocoll; format: biochemical; settings: culture supernatants treated with 50 units/ml asparaginase
[6] = tested on: Klebsiella pneumoniae; assay: Growth inhibition of Klebsiella pneumoniae; format: cell-based

B1: asparaginase: enzyme that catalyzes hydrolysis of the side chain amide group of asparagine to a carboxyl group; E. coli asparaginase (protein, UniProt P00805 23-348, looked up)
L-asparaginase 2: LPNITILATGGTIAGGGDSATKSNYTVGKVGVENLVNAVPQLKDIANVKGEQVVNIGSQDMNDNVWLTLAKKINTDCDKTDGFVITHGTDTMEETAYFLDLTVKCDKPVVMVGAMRPSTSMSADGPFNLYNAVVTAADKASANRGVLVVMNDTVLDGRDVTKTNTTDVATFKSVNYGPLGYIHNGKIDYQRTPARKHTSDTPFDVSKLNELPKVGIVYNYANASDLPAKALVDAGYDGIVSAGVGNGNLYKSVFDTLATAAKTGTAVVRSSRVPTGATTQDAEVDDAKYGFVASGTLNPQKARVLLQLALTQTKDPQQIQQIFNQY
Candida/buccal cell ([1]; cells, 20 U/ml, control 9.0 ± 3.5): 7.0 ± 2
Candida/buccal cell ([1]; cells, 60 U/ml, control 9.0 ± 3.5): 4.5 ± 1.5
Candida/buccal cell ([1]; hyphae, 20 U/ml, control 5.1 ± 3.1): 3.1 ± 2.0
Candida/buccal cell ([1]; hyphae, 60 U/ml, control 5.1 ± 3.1): 1.3 ± 1.2
Hemagglutination ([2]; dilution 1/2): −
Hemagglutination ([2]; dilution 1/8): −
Hemagglutination ([2]; dilution 1/16): −
Hemagglutination ([2]; dilution 1/32): −
Hemagglutination ([2]; dilution 1/64): −
Hemagglutination ([2]; dilution 1/128): −
Hemagglutination ([2]; dilution 1/256): −
Hemagglutination ([2]; dilution 1/512): −
Percent Inhibition ([3]; Strain M4, asparaginase 100 U/ml): 62%
# S. pyogenes buccal cell, Asparaginase (100 U/ml) ([3]; Strain M4, asparaginase 100 U/ml, untreated 183): 69
Percent Inhibition ([3]; Strain M12 AC, asparaginase 100 U/ml): 53%
# S. pyogenes buccal cell, Asparaginase (100 U/ml) ([3]; Strain M12 AC, asparaginase 100 U/ml, untreated 191): 89
Percent Inhibition ([3]; Strain M14, asparaginase 100 U/ml): 43%
# S. pyogenes buccal cell, Asparaginase (100 U/ml) ([3]; Strain M14, asparaginase 100 U/ml, untreated 183): 105
Percent Inhibition ([3]; Strain M14, asparaginase, third line of the strain (line of polyphenol oxidase 300), own concentration not given): 47%
# S. pyogenes buccal cell, Asparaginase (100 U/ml) ([3]; Strain M14, asparaginase, third line of the strain (line of polyphenol oxidase 300), own concentration not given, untreated 183): 77
Percent Inhibition ([3]; Strain M15 Lowe, asparaginase 100 U/ml): 23%
# S. pyogenes buccal cell, Asparaginase (100 U/ml) ([3]; Strain M15 Lowe, asparaginase 100 U/ml, untreated 120): 93
Percent Inhibition ([3]; Strain M24, asparaginase 100 U/ml): 61%
# S. pyogenes buccal cell, Asparaginase (100 U/ml) ([3]; Strain M24, asparaginase 100 U/ml, untreated 142): 55
Percent Inhibition ([3]; Strain M24 VAN, asparaginase 100 U/ml): 48%
# S. pyogenes buccal cell, Asparaginase (100 U/ml) ([3]; Strain M24 VAN, asparaginase 100 U/ml, untreated 131): 68
Percent Inhibition ([3]; Strain M+, asparaginase 100 U/ml): 64%
# S. pyogenes buccal cell, Asparaginase (100 U/ml) ([3]; Strain M+, asparaginase 100 U/ml, untreated 148): 53
Inhibition % of coaggregation [4]: i 31%
proteolytic activity on azocoll [5]: markedly reduced proteolytic activity
inhibition of growth of Klebsiella pneumoniae [6]: did not significantly inhibit growth
